Experimental data from the supplement of paper PMC6757056.
± gives the standard deviation of the averaged measurements.

B1: library; a variant is named by its letters at N, in order (parent)
chain: GCUGUCACCGAGAAACUGUGAAGUAUAUCUUAAACCUGGGCACUUAAAAGAUAUAUGGAGUUAGUAGUGCAACCUGCUCGGUCUGAUGAGUCCNNNNNNGGACGAAACAGC

Key:
[1] = variants of: B1; assay: normalized RNA/DNA level without ligand (relative to sTRSVctl = 100) (log10 (% of sTRSVctl)); HEK293T; ligand: cyclic di-GMP (c-di-GMP-II aptamer); higher = less ribozyme self-cleavage, higher mRNA level; conditions: reporter: mCherry (pCS4076), ligand present: no
Method in brief: (§1)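 RNA level was computed as RNA reads over DNA reads divided by a spiked-in non-cleaving sequence or by the top sequences, then scaled and log-transformed. Scaling was ×100 with log10, the top group was 25 sequences, and the threshold was ≥100 DNA reads. The reads came from HEK293T cells transfected at 4 µg per 6-well well with ribozyme switch library plasmids (mCherry, or eGFP in some ligand experiments). Total RNA was extracted with EDTA 72 h after transfection, with any ligand added 1 h before it.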

[2] = variants of: B1; assay: normalized RNA/DNA level with ligand (relative to sTRSVctl = 100) (log10 (% of sTRSVctl)); HEK293T; ligand: cyclic di-GMP (c-di-GMP-II aptamer); ligand concentration (+) RNA-Seq: 1 mM; higher = less ribozyme self-cleavage, higher mRNA level; conditions: reporter: mCherry (pCS4076), ligand present: yes
Method in brief: as §1

| Variant | normalized RNA/DNA level without ligand (log10) [1] | normalized RNA/DNA level with ligand (log10) [2] |
| --- | --- | --- |
| GCUGUCACCGAGAAACUGUGAAGUAUAUCUUAAACCUGGGCACUUAAAAGAUAUAUGGAGUUAGUAGUGCAACCUGCUCGGUCUGAUGAGUCCUUUCUGGGACGAAACAGC | 1.795 ± 0.012 | 1.92 ± 0.091 |
| GCUGUCACCGAGAAACUGUGAAGUAUAUCUUAAACCUGGGCACUUAAAAGAUAUAUGGAGUUAGUAGUGCAACCUGCUCGGUCUGAUGAGUCCUGCUGAGGACGAAACAGC | 1.6 ± 0.017 | 1.8 ± 0.085 |
| GCUGUCACCGAGAAACUGUGAAGUAUAUCUUAAACCUGGGCACUUAAAAGAUAUAUGGAGUUAGUAGUGCAACCUGCUCGGUCUGAUGAGUCCCCUAGAGGACGAAACAGC | 1.585 ± 0.0086 | 1.79 ± 0.074 |
| GCUGUCACCGAGAAACUGUGAAGUAUAUCUUAAACCUGGGCACUUAAAAGAUAUAUGGAGUUAGUAGUGCAACCUGCUCGGUCUGAUGAGUCCCUGGUGGGACGAAACAGC | 1.39 ± 0.017 | 1.58 ± 0.16 |
| GCUGUCACCGAGAAACUGUGAAGUAUAUCUUAAACCUGGGCACUUAAAAGAUAUAUGGAGUUAGUAGUGCAACCUGCUCGGUCUGAUGAGUCCUAGACGGGACGAAACAGC | 1.7073 ± 0.00046 | 1.87 ± 0.12 |
| GCUGUCACCGAGAAACUGUGAAGUAUAUCUUAAACCUGGGCACUUAAAAGAUAUAUGGAGUUAGUAGUGCAACCUGCUCGGUCUGAUGAGUCCGUAUUCGGACGAAACAGC | 1.48 ± 0.036 | 1.7 ± 0.11 |
| GCUGUCACCGAGAAACUGUGAAGUAUAUCUUAAACCUGGGCACUUAAAAGAUAUAUGGAGUUAGUAGUGCAACCUGCUCGGUCUGAUGAGUCCUACCGAGGACGAAACAGC | 1.56 ± 0.058 | 1.77 ± 0.068 |
| GCUGUCACCGAGAAACUGUGAAGUAUAUCUUAAACCUGGGCACUUAAAAGAUAUAUGGAGUUAGUAGUGCAACCUGCUCGGUCUGAUGAGUCCCUUUUGGGACGAAACAGC | 1.796 ± 0.016 | 1.92 ± 0.13 |
| GCUGUCACCGAGAAACUGUGAAGUAUAUCUUAAACCUGGGCACUUAAAAGAUAUAUGGAGUUAGUAGUGCAACCUGCUCGGUCUGAUGAGUCCUGACUAGGACGAAACAGC | 1.665 ± 0.0041 | 1.78 ± 0.084 |
| GCUGUCACCGAGAAACUGUGAAGUAUAUCUUAAACCUGGGCACUUAAAAGAUAUAUGGAGUUAGUAGUGCAACCUGCUCGGUCUGAUGAGUCCGUCUAUGGACGAAACAGC | 1.64 ± 0.045 | 1.78 ± 0.14 |
| GCUGUCACCGAGAAACUGUGAAGUAUAUCUUAAACCUGGGCACUUAAAAGAUAUAUGGAGUUAGUAGUGCAACCUGCUCGGUCUGAUGAGUCCUCAGACGGACGAAACAGC | 1.63 ± 0.017 | 1.76 ± 0.13 |
| GCUGUCACCGAGAAACUGUGAAGUAUAUCUUAAACCUGGGCACUUAAAAGAUAUAUGGAGUUAGUAGUGCAACCUGCUCGGUCUGAUGAGUCCUUCGGGGGACGAAACAGC | 1.774 ± 0.011 | 1.9 ± 0.13 |
| GCUGUCACCGAGAAACUGUGAAGUAUAUCUUAAACCUGGGCACUUAAAAGAUAUAUGGAGUUAGUAGUGCAACCUGCUCGGUCUGAUGAGUCCCUAGAGGGACGAAACAGC | 1.589 ± 0.011 | 1.74 ± 0.08 |
| GCUGUCACCGAGAAACUGUGAAGUAUAUCUUAAACCUGGGCACUUAAAAGAUAUAUGGAGUUAGUAGUGCAACCUGCUCGGUCUGAUGAGUCCUCCCCUGGACGAAACAGC | 1.78 ± 0.033 | 1.9 ± 0.13 |
| GCUGUCACCGAGAAACUGUGAAGUAUAUCUUAAACCUGGGCACUUAAAAGAUAUAUGGAGUUAGUAGUGCAACCUGCUCGGUCUGAUGAGUCCAACUAUGGACGAAACAGC | 1.662 ± 0.014 | 1.79 ± 0.11 |
| GCUGUCACCGAGAAACUGUGAAGUAUAUCUUAAACCUGGGCACUUAAAAGAUAUAUGGAGUUAGUAGUGCAACCUGCUCGGUCUGAUGAGUCCAAAAAAGGACGAAACAGC | 1.37 ± 0.12 | 1.6 ± 0.078 |
| GCUGUCACCGAGAAACUGUGAAGUAUAUCUUAAACCUGGGCACUUAAAAGAUAUAUGGAGUUAGUAGUGCAACCUGCUCGGUCUGAUGAGUCCACUCGUGGACGAAACAGC | 1.76 ± 0.043 | 1.85 ± 0.021 |
| GCUGUCACCGAGAAACUGUGAAGUAUAUCUUAAACCUGGGCACUUAAAAGAUAUAUGGAGUUAGUAGUGCAACCUGCUCGGUCUGAUGAGUCCGGCGGCGGACGAAACAGC | 1.71 ± 0.021 | 1.89 ± 0.13 |
| GCUGUCACCGAGAAACUGUGAAGUAUAUCUUAAACCUGGGCACUUAAAAGAUAUAUGGAGUUAGUAGUGCAACCUGCUCGGUCUGAUGAGUCCGGCACCGGACGAAACAGC | 1.75 ± 0.06 | 1.82 ± 0.085 |
| GCUGUCACCGAGAAACUGUGAAGUAUAUCUUAAACCUGGGCACUUAAAAGAUAUAUGGAGUUAGUAGUGCAACCUGCUCGGUCUGAUGAGUCCCACUCUGGACGAAACAGC | 1.6 ± 0.019 | 1.77 ± 0.12 |
| GCUGUCACCGAGAAACUGUGAAGUAUAUCUUAAACCUGGGCACUUAAAAGAUAUAUGGAGUUAGUAGUGCAACCUGCUCGGUCUGAUGAGUCCAUGCUUGGACGAAACAGC | 1.61 ± 0.025 | 1.8 ± 0.12 |
| GCUGUCACCGAGAAACUGUGAAGUAUAUCUUAAACCUGGGCACUUAAAAGAUAUAUGGAGUUAGUAGUGCAACCUGCUCGGUCUGAUGAGUCCAAUCGUGGACGAAACAGC | 1.65 ± 0.038 | 1.81 ± 0.11 |
| GCUGUCACCGAGAAACUGUGAAGUAUAUCUUAAACCUGGGCACUUAAAAGAUAUAUGGAGUUAGUAGUGCAACCUGCUCGGUCUGAUGAGUCCUUAGGGGGACGAAACAGC | 1.65 ± 0.018 | 1.8 ± 0.12 |
| GCUGUCACCGAGAAACUGUGAAGUAUAUCUUAAACCUGGGCACUUAAAAGAUAUAUGGAGUUAGUAGUGCAACCUGCUCGGUCUGAUGAGUCCAUCGAGGGACGAAACAGC | 1.56 ± 0.058 | 1.78 ± 0.1 |
| GCUGUCACCGAGAAACUGUGAAGUAUAUCUUAAACCUGGGCACUUAAAAGAUAUAUGGAGUUAGUAGUGCAACCUGCUCGGUCUGAUGAGUCCUCGGGCGGACGAAACAGC | 1.83 ± 0.035 | 1.94 ± 0.086 |
| GCUGUCACCGAGAAACUGUGAAGUAUAUCUUAAACCUGGGCACUUAAAAGAUAUAUGGAGUUAGUAGUGCAACCUGCUCGGUCUGAUGAGUCCUUUUACGGACGAAACAGC | 1.74 ± 0.055 | 1.87 ± 0.14 |
